B7: LILRB1 extracellular domain (receptor, human, UniProt Q8NHL6 24-461, looked up)
chain: GHLPKPTLWAEPGSVITQGSPVTLRCQGGQETQEYRLYREKKTALWITRIPQELVKKGQFPIPSITWEHAGRYRCYYGSDTAGRSESSDPLELVVTGAYIKPTLSAQPSPVVNSGGNVILQCDSQVAFDGFSLCKEGEDEHPQCLNSQPHARGSSRAIFSVGPVSPSRRWWYRCYAYDSNSPYEWSLPSDLLELLVLGVSKKPSLSVQPGPIVAPEETLTLQCGSDAGYNRFVLYKDGERDFLQLAGAQPQAGLSQANFTLGPVSRSYGGQYRCYGAHNLSSEWSAPSDPLDILIAGQFYDRVSLSVQPGPTVASGENVTLLCQSQGWMQTFLLTKEGAADDPWRLRSTYQSQKYQAEFPMGPVTSAHAGTYRCYGSQSSKPYLLTHPSDPLELVVSGPSGGPSSPTTGPTSTSGPEDQPLTPTGSDPQSGLGRHLGV
notes: extracellular domain; also called leukocyte immunoglobulin-like receptor subfamily B member 1

Experiment [1] concerns the target B7. Description: cell surface interaction assay: soluble multimerized LILRB on transfected cells.
Experiment [2] addresses T1, LDLR extracellular domain (human, UniProt P01130 22-788).
T1 construct: extracellular domain; Soluble query, streptavidin tetramer; also called low-density lipoprotein receptor
The experiment can be described thus: cell surface interaction assay: ECD tetramer on transfected cells (FIG. 5N).

The target of a further experiment is T2, LDLR expressed on cells (human, UniProt P01130 22-860).
T2 construct: whole, on cells
T2 sequence (P01130 22-860): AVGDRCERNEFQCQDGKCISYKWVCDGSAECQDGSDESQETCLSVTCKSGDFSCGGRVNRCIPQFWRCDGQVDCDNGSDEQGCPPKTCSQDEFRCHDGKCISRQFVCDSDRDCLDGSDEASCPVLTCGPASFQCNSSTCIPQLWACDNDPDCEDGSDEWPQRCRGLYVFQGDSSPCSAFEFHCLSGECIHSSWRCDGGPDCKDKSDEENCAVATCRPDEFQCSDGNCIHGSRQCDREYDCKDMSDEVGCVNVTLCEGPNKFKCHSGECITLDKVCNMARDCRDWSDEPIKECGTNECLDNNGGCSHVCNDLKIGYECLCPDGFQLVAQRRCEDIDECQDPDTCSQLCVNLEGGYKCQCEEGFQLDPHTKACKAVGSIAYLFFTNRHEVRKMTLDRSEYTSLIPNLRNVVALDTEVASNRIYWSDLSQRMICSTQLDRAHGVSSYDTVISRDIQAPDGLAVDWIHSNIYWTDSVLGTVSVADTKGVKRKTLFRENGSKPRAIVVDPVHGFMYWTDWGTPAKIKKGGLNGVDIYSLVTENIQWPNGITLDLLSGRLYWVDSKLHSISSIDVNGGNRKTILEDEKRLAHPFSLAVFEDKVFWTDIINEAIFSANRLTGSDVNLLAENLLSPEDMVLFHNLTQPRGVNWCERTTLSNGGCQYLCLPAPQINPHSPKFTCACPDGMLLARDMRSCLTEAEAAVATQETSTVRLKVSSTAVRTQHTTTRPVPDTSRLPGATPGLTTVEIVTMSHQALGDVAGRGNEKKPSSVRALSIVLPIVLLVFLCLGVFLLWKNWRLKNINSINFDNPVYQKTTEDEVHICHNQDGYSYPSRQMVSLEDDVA
The experiment can be described thus: cell surface interaction assay: soluble multimerized LILRB on transfected cells.

In experiment [3] the target is T3, EPHA3 extracellular domain (human, UniProt P29320 21-541).
T3 construct: extracellular domain; ECD construct; also called ephrin type-A receptor 3
T3 sequence (looked up): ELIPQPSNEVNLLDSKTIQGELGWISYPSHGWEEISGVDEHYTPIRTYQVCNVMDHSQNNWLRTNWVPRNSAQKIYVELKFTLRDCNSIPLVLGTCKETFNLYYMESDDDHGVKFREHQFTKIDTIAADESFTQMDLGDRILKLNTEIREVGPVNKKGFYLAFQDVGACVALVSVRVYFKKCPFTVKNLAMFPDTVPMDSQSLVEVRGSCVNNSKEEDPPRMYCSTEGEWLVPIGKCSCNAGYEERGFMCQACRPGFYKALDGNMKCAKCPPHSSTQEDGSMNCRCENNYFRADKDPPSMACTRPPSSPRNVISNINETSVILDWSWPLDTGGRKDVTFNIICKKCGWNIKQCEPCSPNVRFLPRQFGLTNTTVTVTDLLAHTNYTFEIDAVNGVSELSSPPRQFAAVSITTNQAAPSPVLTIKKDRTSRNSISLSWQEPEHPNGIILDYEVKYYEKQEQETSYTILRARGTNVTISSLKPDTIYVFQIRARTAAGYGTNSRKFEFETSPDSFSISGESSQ
Description: SPR, LILRA3 ECD-Fc immobilized, ECD-Fc analytes at 250 nM. The source says:
(§1) An irrelevant Fc-tagged protein was used as a control. Sensorgram shown is representative of at least 3 independent runs.
A general note: SPR reads the build-up and loss of mass on a sensor chip optically.

For the next experiment, the target named is T4, EPHA5 (human, UniProt P54756).
T4 construct: extracellular domain; analyte at 250 nM on immobilized LILRA3
T4 sequence (P54756 25-573): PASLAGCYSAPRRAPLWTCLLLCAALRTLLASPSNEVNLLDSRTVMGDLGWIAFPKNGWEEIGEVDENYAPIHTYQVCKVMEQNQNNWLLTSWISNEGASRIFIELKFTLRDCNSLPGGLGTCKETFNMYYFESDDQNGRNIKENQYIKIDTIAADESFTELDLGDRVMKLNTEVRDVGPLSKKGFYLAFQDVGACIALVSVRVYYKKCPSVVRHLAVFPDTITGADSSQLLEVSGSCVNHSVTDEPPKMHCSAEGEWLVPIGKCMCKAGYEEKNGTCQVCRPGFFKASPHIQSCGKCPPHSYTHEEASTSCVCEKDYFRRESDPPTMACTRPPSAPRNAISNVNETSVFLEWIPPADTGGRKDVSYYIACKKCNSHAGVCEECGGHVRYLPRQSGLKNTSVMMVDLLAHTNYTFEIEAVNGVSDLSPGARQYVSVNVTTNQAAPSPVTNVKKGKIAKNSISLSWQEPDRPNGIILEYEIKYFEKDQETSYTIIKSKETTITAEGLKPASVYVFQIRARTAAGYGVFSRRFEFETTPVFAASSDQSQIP
The experiment is described as above.
Source text: as §1

Experiment [4] addresses T5, LILRB4 expressed on cells (human, UniProt Q8NHJ6 22-448).
T5 construct: whole, on cells; C-terminally tagged in the co-IP; also called LILRB4-FLAG
Description: cell surface interaction assay: ECD tetramer on transfected cells (FIG. 5N).

Experiment [5] concerns the target T6, CD177 extracellular domain (human, UniProt Q8N6Q3 22-408, limits assumed).
T6 construct: extracellular domain; ECD-gD-GPI on COS-7 cells in the screen; recombinant ECD in SPR and CAF assays; streptavidin tetramer in organoid cultures; also called NB1; PRV1
T6 sequence (looked up): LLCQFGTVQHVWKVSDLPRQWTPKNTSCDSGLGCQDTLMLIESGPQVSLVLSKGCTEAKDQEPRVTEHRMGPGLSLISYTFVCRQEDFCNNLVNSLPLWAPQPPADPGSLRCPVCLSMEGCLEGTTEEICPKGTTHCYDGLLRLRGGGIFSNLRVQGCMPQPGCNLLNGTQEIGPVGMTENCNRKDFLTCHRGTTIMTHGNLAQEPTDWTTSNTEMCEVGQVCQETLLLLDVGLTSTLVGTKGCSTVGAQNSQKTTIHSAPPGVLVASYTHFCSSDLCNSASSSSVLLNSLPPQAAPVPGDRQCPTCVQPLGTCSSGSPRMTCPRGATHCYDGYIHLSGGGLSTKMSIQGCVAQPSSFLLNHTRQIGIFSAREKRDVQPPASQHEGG
The experiment can be described thus: SPR, fit to equilibrium; CD177 ECD immobilized, monomeric Avi-tagged PDPN ectodomain as analyte. On the procedure:
(§2) SPR was measured using a Proteon XPR36 Instrument (Biorad) or a Biacore 3000 (GE Healthcare). […] Bulk refractive index changes were removed by substrating a reference flow response. For KD calculations, 300-400 resonance units were immobilized, and kinetic data were fit to equilibrium or a Langmuir model to calculate kinetic parameters for CD177 and CLEC-2 binding, respectively. […] All sensorgrams were analyzed with BiaEvaluation 4.1 (Biacore) or Proteon Manager 3.1.0.6 (Proteon) software.

In experiment [6] the target is T7, CLEC-2 extracellular domain (human, UniProt Q9P126 55-229).
T7 construct: extracellular domain; Recombinant ECD in SPR and CAF assays; streptavidin tetramer in organoid cultures; also called CLEC1B; rCLEC-2
T7 sequence (Q9P126 55-229): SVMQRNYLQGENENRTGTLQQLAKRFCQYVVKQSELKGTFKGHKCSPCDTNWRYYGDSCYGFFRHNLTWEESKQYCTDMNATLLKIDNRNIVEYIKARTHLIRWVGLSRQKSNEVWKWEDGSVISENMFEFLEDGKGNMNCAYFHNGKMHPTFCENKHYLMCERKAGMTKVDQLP
Description: SPR, Langmuir model; CLEC-2 ECD immobilized, monomeric Avi-tagged PDPN ectodomain as analyte. On the procedure:
as §2

For another experiment, the target named is T8, FLT4 expressed on cells (human, UniProt P35916 25-1363).
T8 construct: whole, on cells; also called VEGFR3; vascular endothelial growth factor receptor 3
T8 sequence (P35916 25-1363): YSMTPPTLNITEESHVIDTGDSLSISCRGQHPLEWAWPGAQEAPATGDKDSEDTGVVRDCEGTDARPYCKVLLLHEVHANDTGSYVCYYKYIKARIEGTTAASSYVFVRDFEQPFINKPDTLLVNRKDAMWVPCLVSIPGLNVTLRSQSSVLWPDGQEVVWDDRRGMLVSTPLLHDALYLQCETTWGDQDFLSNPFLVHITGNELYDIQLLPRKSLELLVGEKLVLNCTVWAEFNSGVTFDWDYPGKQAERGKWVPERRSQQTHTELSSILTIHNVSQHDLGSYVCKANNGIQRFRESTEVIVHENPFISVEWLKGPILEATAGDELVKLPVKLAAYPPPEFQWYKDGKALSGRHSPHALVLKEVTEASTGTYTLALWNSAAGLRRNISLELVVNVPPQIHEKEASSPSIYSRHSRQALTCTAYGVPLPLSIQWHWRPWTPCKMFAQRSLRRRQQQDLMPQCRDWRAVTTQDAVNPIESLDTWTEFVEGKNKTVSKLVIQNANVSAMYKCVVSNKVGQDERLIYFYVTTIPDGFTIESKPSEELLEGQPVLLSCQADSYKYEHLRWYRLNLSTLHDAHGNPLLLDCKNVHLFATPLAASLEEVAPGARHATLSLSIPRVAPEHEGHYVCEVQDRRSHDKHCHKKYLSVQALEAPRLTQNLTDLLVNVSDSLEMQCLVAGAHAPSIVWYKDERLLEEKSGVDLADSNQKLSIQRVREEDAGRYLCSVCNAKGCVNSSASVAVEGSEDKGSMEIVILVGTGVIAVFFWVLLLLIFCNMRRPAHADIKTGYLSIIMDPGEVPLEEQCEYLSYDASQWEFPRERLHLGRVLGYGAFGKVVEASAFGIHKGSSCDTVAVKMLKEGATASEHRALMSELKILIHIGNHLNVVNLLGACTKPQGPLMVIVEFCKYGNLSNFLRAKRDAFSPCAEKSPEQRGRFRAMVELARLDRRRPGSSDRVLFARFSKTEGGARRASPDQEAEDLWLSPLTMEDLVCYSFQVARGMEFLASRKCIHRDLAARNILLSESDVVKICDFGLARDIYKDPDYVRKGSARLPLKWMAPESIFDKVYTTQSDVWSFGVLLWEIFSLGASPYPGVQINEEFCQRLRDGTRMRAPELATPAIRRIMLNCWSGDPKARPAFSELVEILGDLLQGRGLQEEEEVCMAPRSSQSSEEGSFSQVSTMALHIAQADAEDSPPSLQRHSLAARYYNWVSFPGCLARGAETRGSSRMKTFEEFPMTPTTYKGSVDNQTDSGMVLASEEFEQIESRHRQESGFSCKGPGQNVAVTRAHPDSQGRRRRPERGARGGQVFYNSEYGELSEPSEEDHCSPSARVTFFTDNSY
Description: cell surface interaction assay: soluble multimerized LILRB on transfected cells.

A further experiment has as its target T9, IL6R expressed on cells (human, UniProt P08887 20-468).
T9 construct: whole, on cells; C-terminally tagged in the co-IP; also called IL6R-HA
T9 sequence (looked up): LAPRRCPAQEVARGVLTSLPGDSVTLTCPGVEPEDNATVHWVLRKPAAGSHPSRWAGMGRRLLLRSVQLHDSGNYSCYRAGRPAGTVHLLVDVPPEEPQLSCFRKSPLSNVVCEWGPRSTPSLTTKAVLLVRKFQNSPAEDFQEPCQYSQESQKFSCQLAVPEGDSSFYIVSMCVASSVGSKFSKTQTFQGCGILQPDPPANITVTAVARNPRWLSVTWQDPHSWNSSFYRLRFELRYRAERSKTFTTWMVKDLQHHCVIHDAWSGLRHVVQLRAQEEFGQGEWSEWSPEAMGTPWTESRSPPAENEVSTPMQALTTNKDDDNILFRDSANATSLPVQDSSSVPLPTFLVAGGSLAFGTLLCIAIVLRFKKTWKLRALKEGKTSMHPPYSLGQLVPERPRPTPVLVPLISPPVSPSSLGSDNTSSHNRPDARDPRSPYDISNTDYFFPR
Described as above.

T1 sequence (P01130 22-788): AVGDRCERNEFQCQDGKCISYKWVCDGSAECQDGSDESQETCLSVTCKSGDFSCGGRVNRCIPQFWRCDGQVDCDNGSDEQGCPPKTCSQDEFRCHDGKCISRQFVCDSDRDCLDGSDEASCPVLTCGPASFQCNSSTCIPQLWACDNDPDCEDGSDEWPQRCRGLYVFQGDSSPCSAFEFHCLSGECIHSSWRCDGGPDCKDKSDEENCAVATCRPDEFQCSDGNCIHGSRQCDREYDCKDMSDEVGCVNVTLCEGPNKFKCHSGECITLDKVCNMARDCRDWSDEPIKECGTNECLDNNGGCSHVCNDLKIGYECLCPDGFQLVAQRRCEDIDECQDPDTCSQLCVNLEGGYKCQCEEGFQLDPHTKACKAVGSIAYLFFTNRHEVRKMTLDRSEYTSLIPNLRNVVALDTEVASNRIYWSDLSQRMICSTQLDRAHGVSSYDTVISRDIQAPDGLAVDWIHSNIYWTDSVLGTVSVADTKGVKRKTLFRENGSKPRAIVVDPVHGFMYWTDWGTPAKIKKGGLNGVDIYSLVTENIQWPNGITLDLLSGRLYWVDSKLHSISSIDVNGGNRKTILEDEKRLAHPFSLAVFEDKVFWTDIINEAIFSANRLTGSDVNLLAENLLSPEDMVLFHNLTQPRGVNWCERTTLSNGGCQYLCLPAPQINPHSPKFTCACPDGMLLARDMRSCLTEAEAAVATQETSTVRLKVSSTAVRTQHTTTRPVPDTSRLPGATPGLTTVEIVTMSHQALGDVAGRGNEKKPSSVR

B1: EDAR expressed on cells (receptor, human, UniProt Q9UNE0 27-448, looked up)
chain: EYSNCGENEYYNQTTGLCQECPPCGPGEEPYLSCGYGTKDEDYGCVPCPAEKFSKGGYQICRRHKDCEGFFRATVLTPGDMENDAECGPCLPGYYMLENRPRNIYGMVCYSCLLAPPNTKECVGATSGASANFPGTSGSSTLSPFQHAHKELSGQGHLATALIIAMSTIFIMAIAIVLIIMFYILKTKPSAPACCTSHPGKSVEAQVSKDEEKKEAPDNVVMFSEKDEFEKLTATPAKPTKSENDASSENEQLLSRSVDSDEEPAPDKQGSPELCLLSLVHLAREKSATSNKSAGIQSRRKKILDVYANVCGVVEGLSPTELPFDCLEKTSRMLSSTYNSEKAVVKTWRHLAESFGLKRDEIGGMTDGMQLFDRISTAGYSIPELLTKLVQIERLDAVESLCADILEWAGVVPPASQPHAAS
notes: whole, on cells; C-terminally tagged in the co-IP; also called EDAR-HA
On to B1, for which the binding result in experiment [1] is “binds”.

B2: LILRB5 expressed on cells (receptor, human, UniProt O75023 24-590, looked up)
chain: GTLPKPTLWAEPASVIARGKPVTLWCQGPLETEEYRLDKEGLPWARKRQNPLEPGAKAKFHIPSTVYDSAGRYRCYYETPAGWSEPSDPLELVATGFYAEPTLLALPSPVVASGGNVTLQCDTLDGLLTFVLVEEEQKLPRTLYSQKLPKGPSQALFPVGPVTPSCRWRFRCYYYYRKNPQVWSNPSDLLEILVPGVSRKPSLLIPQGSVVARGGSLTLQCRSDVGYDIFVLYKEGEHDLVQGSGQQPQAGLSQANFTLGPVSRSHGGQYRCYGAHNLSPRWSAPSDPLDILIAGLIPDIPALSVQPGPKVASGENVTLLCQSWHQIDTFFLTKEGAAHPPLCLKSKYQSYRHQAEFSMSPVTSAQGGTYRCYSAIRSYPYLLSSPSYPQELVVSGPSGDPSLSPTGSTPTPGPEDQPLTPTGLDPQSGLGRHLGVVTGVSVAFVLLLFLLLFLLLRHRHQSKHRTSAHFYRPAGAAGPEPKDQGLQKRASPVADIQEEILNAAVKDTQPKDGVEMDAPAAASEAPQDVTYAQLHSLTLRREATEPPPSQEREPPAEPSIYAPLAIH
notes: whole, on cells
With B2, the binding result in [2] is recorded as “binds”.

B3: LILRB5 extracellular domain (receptor, human, UniProt O75023 24-458, looked up)
chain: GTLPKPTLWAEPASVIARGKPVTLWCQGPLETEEYRLDKEGLPWARKRQNPLEPGAKAKFHIPSTVYDSAGRYRCYYETPAGWSEPSDPLELVATGFYAEPTLLALPSPVVASGGNVTLQCDTLDGLLTFVLVEEEQKLPRTLYSQKLPKGPSQALFPVGPVTPSCRWRFRCYYYYRKNPQVWSNPSDLLEILVPGVSRKPSLLIPQGSVVARGGSLTLQCRSDVGYDIFVLYKEGEHDLVQGSGQQPQAGLSQANFTLGPVSRSHGGQYRCYGAHNLSPRWSAPSDPLDILIAGLIPDIPALSVQPGPKVASGENVTLLCQSWHQIDTFFLTKEGAAHPPLCLKSKYQSYRHQAEFSMSPVTSAQGGTYRCYSAIRSYPYLLSSPSYPQELVVSGPSGDPSLSPTGSTPTPGPEDQPLTPTGLDPQSGLGRHLG
notes: extracellular domain
As to B3, the binding result with LDLR expressed on cells is recorded as “binds”.

B4: LILRA3 (ECD-Fc fusion protein) (Fc fusion, human, UniProt Q8N6C8 24-439, looked up)
chain: GPLPKPTLWAEPGSVITQGSPVTLRCQGSLETQEYHLYREKKTALWITRIPQELVKKGQFPILSITWEHAGRYCCIYGSHTAGLSESSDPLELVVTGAYSKPTLSALPSPVVTSGGNVTIQCDSQVAFDGFILCKEGEDEHPQCLNSHSHARGSSRAIFSVGPVSPSRRWSYRCYGYDSRAPYVWSLPSDLLGLLVPGVSKKPSLSVQPGPVVAPGEKLTFQCGSDAGYDRFVLYKEWGRDFLQRPGRQPQAGLSQANFTLGPVSRSYGGQYTCSGAYNLSSEWSAPSDPLDILITGQIRARPFLSVRPGPTVASGENVTLLCQSQGGMHTFLLTKEGAADSPLRLKSKRQSHKYQAEFPMSPVTSAHAGTYRCYGSLSSNPYLLTHPSDPLELVVSGAAETLSPPQNKSDSKAGE
notes: extracellular domain; Immobilized on the SPR chip
Take B4: the binding result in experiment [3] is “binds”; in the experiment with EPHA5, “no binding (tested: 250 nM)”.

B5: CNTFR extracellular domain (receptor, human, UniProt P26992 23-342, looked up)
chain: QRHSPQEAPHVQYERLGSDVTLPCGTANWDAAVTWRVNGTDLAPDLLNGSQLVLHGLELGHSGLYACFHRDSWHLRHQVLLHVGLPPREPVLSCRSNTYPKGFYCSWHLPTPTYIPNTFNVTVLHGSKIMVCEKDPALKNRCHIRYMHLFSTIKYKVSISVSNALGHNATAITFDEFTIVKPDPPENVVARPVPSNPRRLEVTWQTPSTWPDPESFPLKFFLRYRPLILDQWQHVELSDGTAHTITDAYAGKEYIIQVAAKDNEIGTWSDWSVAAHATPWTEEPRHLTTEAQAAETTTSTTSSLAPPPTTKICDPGELGS
notes: extracellular domain; Soluble query, streptavidin tetramer
On to B5, for which, in experiment [4], the binding result is recorded as “binds”.

B6: podoplanin (PDPN) extracellular domain (receptor, human, UniProt Q86YL7 23-131, looked up)
chain: ASTGQPEDDTETTGLEGGVAMPGAEDDVVTPGTSEDRYKSGLTTLVATSVNSVTGIRIEDLPTSESTVHAQEQSPSATASNVATSHSTEKVDGDTQTTVEKDGLSTVTL
modifications: biotinylated Avi tag in the tetramer
notes: extracellular domain; Streptavidin-APC tetramer in the screens; monomeric Avi-tagged ectodomain for KD; also called gp38; Aggrus
Consider B6, for which the Kd (commonly the equilibrium constant for the complex coming apart) in experiment [5] came out at 3.3 µM; in experiment [6], 0.21 µM.

With B7, the binding result in the experiment with FLT4 expressed on cells and in the experiment with IL6R expressed on cells was “binds” throughout.

The record behind these values is US20220119490A1 (Genentech, published 2022).
